The results in this text go back to US20020151471A1 (published 2002).

Test in all cases: TF binding assay; method not stated in the example
The target in experiment [1] is T1, Factor VII preparation 5 (recombinant human FVII produced serum-free in CHO clone E11, Example 3) (human, UniProt P08709 61-466, N-linked oligosaccharide chains (Factor VII is normally glycosylated at Asn 145 and Asn 322); 86% of chains contain sialic acid, 21% contain fucosylated antenna).
T1 construct: The preparations differ only in glycoform pattern
T1 sequence (looked up): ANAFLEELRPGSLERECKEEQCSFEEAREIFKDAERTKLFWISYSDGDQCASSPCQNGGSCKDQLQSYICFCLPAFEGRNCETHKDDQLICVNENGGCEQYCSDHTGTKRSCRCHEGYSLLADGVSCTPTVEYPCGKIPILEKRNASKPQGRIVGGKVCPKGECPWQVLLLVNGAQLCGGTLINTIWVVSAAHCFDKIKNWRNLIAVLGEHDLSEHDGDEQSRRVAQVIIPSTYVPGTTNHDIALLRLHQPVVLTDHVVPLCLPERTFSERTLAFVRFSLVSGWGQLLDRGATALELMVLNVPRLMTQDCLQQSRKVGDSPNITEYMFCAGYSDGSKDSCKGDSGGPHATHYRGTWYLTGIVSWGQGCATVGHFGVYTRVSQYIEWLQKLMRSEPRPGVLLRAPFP

The target in experiment [2] is T2, Factor VII preparation 2 (recombinant human FVII produced serum-free in CHO clone E11, Example 3) (human, UniProt P08709 61-466, N-linked oligosaccharide chains (Factor VII is normally glycosylated at Asn 145 and Asn 322); 94% of chains contain sialic acid, 13% contain fucosylated antenna).
T2 construct: The preparations differ only in glycoform pattern
T2 sequence (looked up): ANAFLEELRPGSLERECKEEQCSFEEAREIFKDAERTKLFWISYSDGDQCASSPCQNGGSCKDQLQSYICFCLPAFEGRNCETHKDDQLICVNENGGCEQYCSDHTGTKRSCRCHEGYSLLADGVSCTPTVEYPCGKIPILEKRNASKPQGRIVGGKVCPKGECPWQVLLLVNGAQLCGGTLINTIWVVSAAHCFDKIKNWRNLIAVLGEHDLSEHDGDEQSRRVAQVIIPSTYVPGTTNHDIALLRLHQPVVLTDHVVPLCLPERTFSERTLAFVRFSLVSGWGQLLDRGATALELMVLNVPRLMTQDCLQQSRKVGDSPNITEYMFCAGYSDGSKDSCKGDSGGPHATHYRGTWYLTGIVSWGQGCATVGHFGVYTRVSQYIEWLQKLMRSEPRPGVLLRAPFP

Experiment [3] concerns the target T3, Factor VII preparation 1 (recombinant human FVII produced serum-free in CHO clone E11, Example 3) (human, UniProt P08709 61-466, N-linked oligosaccharide chains (Factor VII is normally glycosylated at Asn 145 and Asn 322); 98% of chains contain sialic acid, 6% contain fucosylated antenna).
T3 construct: The preparations differ only in glycoform pattern
T3 sequence (looked up): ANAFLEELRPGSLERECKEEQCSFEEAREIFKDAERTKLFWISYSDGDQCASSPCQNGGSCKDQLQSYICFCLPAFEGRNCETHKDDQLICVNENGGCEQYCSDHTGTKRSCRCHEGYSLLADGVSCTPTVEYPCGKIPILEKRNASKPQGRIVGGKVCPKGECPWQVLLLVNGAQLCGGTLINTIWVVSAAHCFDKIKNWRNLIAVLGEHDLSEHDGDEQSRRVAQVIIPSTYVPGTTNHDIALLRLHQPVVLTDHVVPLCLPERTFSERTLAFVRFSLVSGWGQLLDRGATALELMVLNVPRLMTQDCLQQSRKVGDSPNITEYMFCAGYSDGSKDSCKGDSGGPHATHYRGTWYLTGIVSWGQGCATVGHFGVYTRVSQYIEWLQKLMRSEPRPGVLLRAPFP

B1: tissue factor (TF) (receptor, UniProt P13726 33-251, looked up)
chain: SGTTNTVAAYNLTWKSTNFKTILEWEPKPVNQVYTVQISTKSGDWKSKCFYTTDTECDLTDEIVKDVKQTYLARVFSYPAGNVESTGSAGEPLYENSPEFTPYLETNLGQPTIQSFEQVGTKVNVTVEDERTLVRRNNTFLSLRDVFGKDLIYTLYYWKSSSSGKKTAKTNTNEFLIDVDKGENYCFSVQAVIPSRTVNRKSTDSPVECMGQEKGEFRE
The term Kd denotes the constant that tells how readily two partners part at equilibrium. As for B1, the values for the Kd in experiment [1], in experiment [2] and in experiment [3] were 2.8 nM, 2 nM and 2.8 nM, respectively.
